What was measured:
[1] = biological target: TREM-1-interacting protein on PGN-stimulated neutrophils; test: flow cytometry competition: 2 µg/ml TREM-1 tetramer as probe with 100 µg/ml DCIR COMP; did not compete
[2] = biological target: Type II 1.0 PGLYRP1 on HEK293 6E cells (human); test: cell-based or functional assay
[3] = biological target: TREM-1-interacting protein on PGN-stimulated neutrophils; test: flow cytometry competition: 2 µg/ml TREM-1 tetramer as probe with 100 µg/ml TREM COMP
[4] = biological target: human TREM-1 on BWZ.36/hTREM-1:DAP12:NFAT-LacZ reporter cells (human) (UniProt Q9NP99); test: cell-based or functional assay
[5] = biological target: Type II PGLYRP1 on HEK293-6E cells (Example 15) (human); test: flow cytometry on transfected HEK293-6E cells
[6] = biological target: Type II PGLYRP3 on HEK293-6E cells (human); test: flow cytometry on transfected HEK293-6E cells
[7] = biological target: Type II PGLYRP3 + 4 on HEK293-6E cells (human); test: flow cytometry on transfected HEK293-6E cells
[8] = biological target: Type II PGLYRP1 on HEK293-6E cells (Example 15) (human); test: flow cytometry on transfected HEK293-6E cells, probe 5 ug/ml; grade of MFI ratio over negative control (++++ is >30)
[9] = biological target: TREM-1-interacting protein on PGN-stimulated neutrophils; test: flow cytometry on PGN-stimulated neutrophils, 2 µg/ml probe, goat anti hFc/PE

Type II PGLYRP3 on HEK293-6E cells (human), sequence (Q96LB9 other isoform, or with tags, fused parts or gaps, form in doubt): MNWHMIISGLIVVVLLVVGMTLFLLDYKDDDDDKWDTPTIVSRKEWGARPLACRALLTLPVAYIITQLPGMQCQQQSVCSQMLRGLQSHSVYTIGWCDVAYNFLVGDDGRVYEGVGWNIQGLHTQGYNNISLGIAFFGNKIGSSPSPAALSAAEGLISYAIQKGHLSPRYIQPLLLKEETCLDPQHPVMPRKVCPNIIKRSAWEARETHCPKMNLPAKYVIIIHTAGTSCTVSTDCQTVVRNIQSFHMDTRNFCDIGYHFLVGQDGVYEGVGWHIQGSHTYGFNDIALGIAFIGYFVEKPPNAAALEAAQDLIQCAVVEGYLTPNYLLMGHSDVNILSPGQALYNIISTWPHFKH
Type II PGLYRP3 + 4 on HEK293-6E cells (human), sequence (Q96LB9 other isoform, or with tags, fused parts or gaps, form in doubt, chain 1 of 2): as the sequence (Q96LB9 other isoform, or with tags, fused parts or gaps, form in doubt) above
Type II PGLYRP3 + 4 on HEK293-6E cells (human), sequence (Q96LB8 other isoform, or with tags, fused parts or gaps, form in doubt, chain 2 of 2, further chain): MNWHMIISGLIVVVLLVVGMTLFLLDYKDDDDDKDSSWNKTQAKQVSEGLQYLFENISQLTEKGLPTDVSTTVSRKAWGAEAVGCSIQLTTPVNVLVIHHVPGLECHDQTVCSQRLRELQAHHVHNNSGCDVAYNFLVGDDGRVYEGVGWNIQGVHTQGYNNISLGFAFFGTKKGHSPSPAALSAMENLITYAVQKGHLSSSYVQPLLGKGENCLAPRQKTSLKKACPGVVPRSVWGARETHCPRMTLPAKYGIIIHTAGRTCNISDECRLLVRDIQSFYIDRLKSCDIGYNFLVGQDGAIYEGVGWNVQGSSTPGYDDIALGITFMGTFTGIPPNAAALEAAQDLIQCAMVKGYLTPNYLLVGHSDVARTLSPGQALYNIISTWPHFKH
Type II PGLYRP1 on HEK293-6E cells (Example 15) (human), sequence (chain, as listed by the source limits assumed, form in doubt): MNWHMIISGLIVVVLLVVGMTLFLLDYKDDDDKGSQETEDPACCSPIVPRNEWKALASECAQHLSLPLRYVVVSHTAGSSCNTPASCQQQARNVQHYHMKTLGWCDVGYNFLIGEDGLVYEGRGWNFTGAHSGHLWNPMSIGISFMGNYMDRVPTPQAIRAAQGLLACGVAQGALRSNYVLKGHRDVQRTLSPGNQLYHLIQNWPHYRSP
human TREM-1 on BWZ.36/hTREM-1:DAP12:NFAT-LacZ reporter cells (human), sequence (Q9NP99 21-234): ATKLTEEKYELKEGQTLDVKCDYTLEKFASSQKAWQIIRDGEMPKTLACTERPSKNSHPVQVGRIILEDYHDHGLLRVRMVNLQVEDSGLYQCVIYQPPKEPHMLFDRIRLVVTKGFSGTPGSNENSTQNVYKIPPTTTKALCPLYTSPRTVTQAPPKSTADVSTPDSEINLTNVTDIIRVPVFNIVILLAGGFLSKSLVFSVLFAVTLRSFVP
Type II 1.0 PGLYRP1 on HEK293 6E cells (human), sequence (chain, as listed by the source limits assumed): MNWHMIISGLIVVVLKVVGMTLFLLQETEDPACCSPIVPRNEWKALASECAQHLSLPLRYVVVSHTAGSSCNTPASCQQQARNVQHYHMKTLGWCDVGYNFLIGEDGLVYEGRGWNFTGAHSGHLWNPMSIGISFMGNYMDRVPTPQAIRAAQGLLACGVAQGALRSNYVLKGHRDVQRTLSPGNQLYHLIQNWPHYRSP

Row | Substance | ratio of MFI of probe staining over negative control staining [5] | ratio of MFI of probe staining over negative control staining [6] | ratio of MFI of probe staining over negative control staining [7] | further results
1 | DCIR COMP (6HIS-SBP38x2-COMP-hDCIR) | – | – | – | % positive cells (TREM-1 tetramer staining with competitor) [1]: 41%
2 | IsoAb (isotype control antibody of Example 18) | – | – | – | Activity of BWZ/hTREM1 reporter cells with Type II 1.0 PGLYRP1 transfectants (without antibody: 100%) [2]: 98%
3 | TREM COMP (hTREM-1-COMP-SBP38x2-6HIS) | – | – | – | % positive cells (TREM-1 tetramer staining with competitor) [3]: 10%
4 | Type II 1.0 PGLYRP1 on HEK293 6E cells (ligand) | – | – | – | Fold activity of BWZ/hTREM1 reporter cells co-incubated with transfected HEK293 6E cells, without PGN, against empty vector [4]: 24 fold
5 | huTREM2.Fc dimer (C0248) (Fc fusion) | < 1 | < 1 | < 1 | –
6 | huTREM-1.Fc dimer (C0099) (Fc fusion) | – | < 1 | < 1 | ratio of MFI of probe staining over negative control staining [8]: > 30
7 | huTREML1.Fc dimer (C0246) (Fc fusion) | < 1 | < 1 | < 1 | –
8 | huTREML2.Fc dimer (C0247) (Fc fusion) | < 1 | < 1 | < 1 | –
9 | human TREM-1-G4Sx3-TREM-1/Fc6mut (TREM-1 tetramer) (Fc fusion) | – | – | – | % positive cells [9]: 39%

— patent US20150018528A1
